This is an account of results in IntAct's records for PubMed 19197237.

The target in the assay is pex14_human PEX14 (UniProt O75381).
Chain of UniProt O75381 (O75381 whole entry): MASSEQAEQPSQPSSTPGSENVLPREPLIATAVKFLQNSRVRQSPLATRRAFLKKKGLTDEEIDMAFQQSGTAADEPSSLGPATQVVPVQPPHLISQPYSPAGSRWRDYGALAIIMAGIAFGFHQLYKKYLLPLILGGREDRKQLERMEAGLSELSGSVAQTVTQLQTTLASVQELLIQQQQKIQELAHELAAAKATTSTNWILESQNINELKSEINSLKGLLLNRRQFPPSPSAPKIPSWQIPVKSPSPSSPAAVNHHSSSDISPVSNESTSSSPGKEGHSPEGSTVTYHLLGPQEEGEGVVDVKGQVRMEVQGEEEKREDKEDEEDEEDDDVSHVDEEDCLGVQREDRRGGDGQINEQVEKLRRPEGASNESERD

For “Peroxisomal targeting signal 1 receptor (Homo sapiens) (from UniProt P50542) E121D”, the “effect of a mutation on the interaction” value is recorded as “disrupting interaction”.
